Data as given in PMC5154190, “HBV maintains electrostatic homeostasis by modulating negative charges from phosphoserine and encapsidated nucleic acids” (Scientific Reports, 2016).

Biological target: the molecule itself
Test: native gel or EMSA

Protein | binding result
HBc mutant S3A, expressed in HuH-7 cells (natural protein) MDIDPYKEFGATVELLSFLPSDFFPSVRDLLDTASALYREALESPEHCSPHHTALRQAILCWGELMTLATWVGVNLEDPASRDLVVSYVNTNMGLKFRQLLWFHISCLTFGRETVIEYLVSFGVWIRTPPAYRPPNAPILSTLPETTVVRRRGRAPRRRTPAPRRRRSQAPRRRRSQSRESQC | binds
HBc mutant S7D, E. coli-expressed (natural protein) MDIDPYKEFGATVELLSFLPSDFFPSVRDLLDTASALYREALESPEHCSPHHTALRQAILCWGELMTLATWVGVNLEDPASRDLVVSYVNTNMGLKFRQLLWFHISCLTFGRETVIEYLVSFGVWIRTPPAYRPPNAPILSTLPETTVVRRRGRDPRRRTPDPRRRRDQDPRRRRDQDREDQC | binds
HBc mutant S7D, expressed in HuH-7 cells (natural protein) MDIDPYKEFGATVELLSFLPSDFFPSVRDLLDTASALYREALESPEHCSPHHTALRQAILCWGELMTLATWVGVNLEDPASRDLVVSYVNTNMGLKFRQLLWFHISCLTFGRETVIEYLVSFGVWIRTPPAYRPPNAPILSTLPETTVVRRRGRDPRRRTPDPRRRRDQDPRRRRDQDREDQC | binds
HBc mutant S3D, E. coli-expressed (natural protein) MDIDPYKEFGATVELLSFLPSDFFPSVRDLLDTASALYREALESPEHCSPHHTALRQAILCWGELMTLATWVGVNLEDPASRDLVVSYVNTNMGLKFRQLLWFHISCLTFGRETVIEYLVSFGVWIRTPPAYRPPNAPILSTLPETTVVRRRGRDPRRRTPDPRRRRSQDPRRRRSQSRESQC | binds
HBc mutant S3D, expressed in HuH-7 cells (natural protein) MDIDPYKEFGATVELLSFLPSDFFPSVRDLLDTASALYREALESPEHCSPHHTALRQAILCWGELMTLATWVGVNLEDPASRDLVVSYVNTNMGLKFRQLLWFHISCLTFGRETVIEYLVSFGVWIRTPPAYRPPNAPILSTLPETTVVRRRGRDPRRRTPDPRRRRSQDPRRRRSQSRESQC | binds
HBc mutant S7A, expressed in HuH-7 cells (natural protein) MDIDPYKEFGATVELLSFLPSDFFPSVRDLLDTASALYREALESPEHCSPHHTALRQAILCWGELMTLATWVGVNLEDPASRDLVVSYVNTNMGLKFRQLLWFHISCLTFGRETVIEYLVSFGVWIRTPPAYRPPNAPILSTLPETTVVRRRGRAPRRRTPAPRRRRAQAPRRRRAQAREAQC | binds
